Measurements from patent US20240066100A1 (published 2024).
Positions count from the first letter of the chain named.

T1: human IL-18Rα ectodomain (amino acids 19-329), biotinylated (human, UniProt Q13478 19-329, biotin on the AviTag (BirA ligase))
T1 construct: range 19-329; Secreted from insect cells with gp67 signal peptide (cleaved); also called hIL-18Rα; IL-18R1
T1 sequence: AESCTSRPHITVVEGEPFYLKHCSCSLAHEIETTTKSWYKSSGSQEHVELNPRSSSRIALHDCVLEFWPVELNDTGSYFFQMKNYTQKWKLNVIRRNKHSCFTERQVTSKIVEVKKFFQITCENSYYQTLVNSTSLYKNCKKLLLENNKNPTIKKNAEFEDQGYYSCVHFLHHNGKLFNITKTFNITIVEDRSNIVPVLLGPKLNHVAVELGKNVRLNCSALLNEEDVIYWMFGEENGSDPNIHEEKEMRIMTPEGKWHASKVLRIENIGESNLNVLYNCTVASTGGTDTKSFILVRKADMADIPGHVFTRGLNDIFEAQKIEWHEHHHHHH

T2: mouse IL-18BP (amino acids 31-194), biotinylated (mouse, UniProt Q9Z0M9 29-193, biotin on the AviTag (BirA ligase))
T2 construct: Secreted from Expi293 cells with H7 signal peptide (cleaved); The printed residue range is the same as for the human protein and may not fit the mouse entry; also called mIL-18BP
T2 sequence: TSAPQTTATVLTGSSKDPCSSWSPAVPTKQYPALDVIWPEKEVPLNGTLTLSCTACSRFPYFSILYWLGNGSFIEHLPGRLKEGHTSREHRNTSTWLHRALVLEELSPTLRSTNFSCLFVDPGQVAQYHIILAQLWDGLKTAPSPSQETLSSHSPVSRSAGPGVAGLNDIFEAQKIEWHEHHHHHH

B1: human decoy-resistant IL-18 variant SEQ ID NO: 34 (ligand)
chain: YFGKLESKLSVIRNLNDQVLFIDQGNRPLFEDMTDSDCRDNAPRTIFIISTYKDSQPRGKAVTISVKCEKISTLSCENKIISFKEMNPPDNIKDTKSDIIFFQRDVPGHKHKMQFESSSYEGYFLACEKERDLFKLILKKEDELGDRSIMFTVQNED
notes: Engineered variant of mature human IL-18; tag and display linker not in chains; also called hCS1; hCS-1
B2: human decoy-resistant IL-18 variant SEQ ID NO: 36 (ligand)
chain: B1 chain with Y1R
notes: Engineered variant of mature human IL-18; tag and display linker not in chains; also called hCS3
B3: human decoy-resistant IL-18 variant SEQ ID NO: 52 (ligand)
chain: B1 chain with Y1R, K8R
notes: Engineered variant of mature human IL-18; display linker not in chains; also called hH3
B4: human decoy-resistant IL-18 variant SEQ ID NO: 39 (ligand)
chain: B1 chain with K8R, T51K, S55K, G59A, K60Q, V153I
notes: Engineered variant of mature human IL-18; display linker not in chains; also called hA8
B5: human decoy-resistant IL-18 variant SEQ ID NO: 57 (ligand)
chain: B1 chain with Y1R, L5H, K53R, Q103E, D105N, H111Y
notes: Engineered variant of mature human IL-18; display linker not in chains; also called hB9
B6: human decoy-resistant IL-18 variant SEQ ID NO: 37 (ligand)
chain: B1 chain with Y1R, K53R, D105N, H111Y
notes: Engineered variant of mature human IL-18; tag and display linker not in chains; also called hCS4
B7: murine decoy-resistant IL-18 variant SEQ ID NO: 64 (ligand)
chain: NFGRLHCTTAVIRNINDQVLFVDKRQPVFEDMTDIDQSASEPQTRLIIYVYTDGRRRGKAVTLSVKDSKMSTLSCKNKIISFEEMDPPENIDDIQSDLIFFQKKVPGHDKMEFESSLYEGHFLACQKEDDAFKLILKKKDENGDKSVMFTLTNLHQS
notes: Engineered variant of mature mouse IL-18; tag and display linker not in chains; also called mE8; E8

Legend:
[1] = target: T1, human IL-18Rα ectodomain (amino acids …); test: on-yeast binding isotherm, flow cytometry; exponent missing in the cell, derived from c3/c4
[2] = target: T1, human IL-18Rα ectodomain (amino acids …); test: on-yeast binding isotherm, flow cytometry; exponent missing in the cell, derived from 20 µM/c4
[3] = target: T2, mouse IL-18BP (amino acids 31-194), …; test: yeast binding isotherms and SPR

| Binder | Kd [2] | other results |
| --- | --- | --- |
| B1 | – | Kd [1]: 64.4 nM |
| B2 | – | Kd [1]: 113 nM |
| B3 | 83.8 nM | – |
| B4 | 57.7 nM | – |
| B5 | 127 nM | – |
| B6 | 160 nM | – |
| B7 | – | Kd [3]: > 1000 nM |
